The source of these data is publication PMC3581363 (Biochemistry, 2013).

This series concerns the molecule itself. Nature of the series: cross-linking.

B1: sigma-1 receptor cysteine 94 alanine / methionine 170 cysteine (C94A/M170C) double mutant (receptor, guinea pig, UniProt Q60492 1-223, looked up)
chain: MQWAVGRRWLWVALFLAAVAVLTQIVWLWLGTQNFVFQREEIAQLARQYAGLDHELAFSKLIVELRRLHPVHVLPDEELQWVFVNAGGWMGAMALLHASLSEYVLLFGTALGSPRHSGRYWAEISDTIISGTFHQWREGTTKSEVFYPGETVVHGPGEATAVEWGPNTWCVEYGRGVIPSTLGFALADTVFSTQDFLTLFYTLRVYARALQLELTTYLFGQDP
Consider B1, for which the stoichiometry N (in general, the number of molecules, sites or subunits per partner or assembly) was determined as 2.
